Data: PMC12612255

Target: CNOT1 (UniProt A5YKK6)
Test: co-IP with FLAG-tagged YTHDF2
Conditions: reference: wild type; sites S39

Substance: YTHDF2 (from UniProt Q9Y5A9) S39A
- binding against the reference: weaker
